To fix the notation:
B1: Table 1 Line # 24 antibody (SP_B_cell) (antibody, human IgG4, V domains shown)
VH: EVQLVESGGDLVQPGTSLRLSCAASGFTFDDYAMHWVRQTPGQGLEWVSGINWNSGTIGYADSVKGRFTISRDNAKNSLFLQMNSLRAEDSAFYYCTKDIGGSYYASDFWGQGTLVTVSS
VL: DIQMTQSPSSLSASVGDRVTITCRASQRISTDLNWYQQKSGKAPNLLIYGASSLQSGVPSRFSGSGSGTDFILTISTLQPEDFATYYCQQSYSTPFTFGPGTKVDIK
notes: Cloned with human IgG4/human Igk constants for Kd; barcode counts are of the source cell's own IgG
B2: Table 1 Line # 28 antibody (SP_B_cell) (antibody, human IgG4, V domains shown)
VH: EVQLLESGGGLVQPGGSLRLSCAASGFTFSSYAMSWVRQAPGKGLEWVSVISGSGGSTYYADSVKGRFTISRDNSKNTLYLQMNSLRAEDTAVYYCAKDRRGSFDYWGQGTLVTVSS
VL: DIQMTQSPSSVSASVGDRVTITCRASQGISSWFAWYQQKPGKAPKLLIYAASSLLSGVPSRFSGSGSGTDFTLTISSLQPEDFATYYCQQANSFPFTFGPGTKVDFK
notes: as for B1
B3: Table 1 Line # 29 antibody (SP_B_cell) (antibody, V domains shown)
VH: EVQLLESGGGLVQPGGSLRLSCAASGFTFSSYAMSWVRQAPGKGLEWVSAISGSGGSTYYADSVKGRFTISRDNSKNTLYLQMNSLRAEDTAIYYCARYGNWNYIWGQGTLVTVSS
VL: B2 VL with F33L, L55Q, F96L, P100G, D105E, F106I
B4: Table 1 Line # 21 antibody (SP_B_cell) (antibody, human IgG4, V domains shown)
VH: EVQLVESGGGVVRPGGSLRLSCAASGFTFDDYGMSWVRQAPGKGLEWVSGINWNGGSTGYADSVKGRFTMSRDNAKKSLYLQMNSLRAEDTAFYHCARDDSSSLYGYFQHWGQGTLVTVSS
VL: DIQMTQSPSSLSASVGDRVTITCRASQGISIYLAWYQQKPGKVPKLLIYAASTLQSGVPSRFSGSGSGTDFTLTISSLQPEDVATYYCQNYNSAPRTFGQGTKVEIK
notes: as for B1
B5: Table 1 Line # 12 antibody (BM_Plasma_cell) (antibody, human IgG4, V domains shown)
VH: QVQLVESGGGVVQPGRSLRLSCAASGFTFSSYGMHWVRQAPGKGLEWVSVISYDGSNKYYADSVKGRFTISRDNSKNTLFLQVNSLRAEDTAVYYCAKEGRTGFDYWGQGTLVTVSS
VL: B4 VL with S26R, I31N, Y36F, N90K, R96W
notes: as for B1
B6: Table 1 Line # 25 antibody (SP_B_cell) (antibody, human IgG4, V domains shown)
VH: EVQLVESGGTVERPGGSLRLSCAASGFTFDDYGMSWVRQAPGKGLEWVSGTSWNGGHIGYADSVKGRFIISRDNAKNSLYLQINSLRVEDTALYYCTRDSTSSWYGVFDFWGQGTLVTVSS
VL: DIQMTQSPSSLSASVGDRVTITCRASQDISINLAWYQQKPGKTPKLLIYAAASTLQSGVPSRFSGSGSGTDFTLTISSLQPEDVATYYCQNYNSAPRTFGQGTKVEIK
notes: as for B1
B7: Table 1 Line # 26 antibody (SP_B_cell) (antibody, human IgG4, V domains shown)
VH: QVQLQQSGPGLVKPSQTLSLTCAISGDSVSSNIATWNWIRQSPSRGLECLGRTYYRSKWYSDYAVSVKSRITINPDTSKNQFSLQLNSVTPEDTAVYYCARGWNYGYYFDYWGQGTLVTVSS
VL: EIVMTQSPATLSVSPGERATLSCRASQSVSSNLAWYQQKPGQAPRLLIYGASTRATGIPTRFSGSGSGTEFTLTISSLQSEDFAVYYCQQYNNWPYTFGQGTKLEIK
notes: as for B1
B8: Table 1 Line # 5 antibody (BM_Plasma_cell) (antibody, V domains shown)
VH: QVQLVQSGAEVKKPGASVKVSCKASGYTFTGYYIYWVRQAPGQGLEWMGWINPNSGGTNYAQKFQGRVTMTRDTSISTVYMELSRLRSDDAAVYYCAKRKRGLDGWGQGTTVTVSS
VL: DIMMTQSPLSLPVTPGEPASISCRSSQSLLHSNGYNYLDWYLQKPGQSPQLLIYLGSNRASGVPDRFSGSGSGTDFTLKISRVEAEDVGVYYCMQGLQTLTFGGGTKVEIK
notes: as for B1
B9: Table 1 Line # 32 antibody (SP_B_cell) (antibody, human IgG4, V domains shown)
VH: EVQLVESGGGLVQPGRSLRLSCAASGFTFDDYAMHWVRQAPGKGLEWVSGVNWNGVSLGYADSVKGRFTISRDNAKNSLYLQMNSLRAEDTAFYYCAKDSGSYHYYYGMDGWGQGTTVTVSS
VL: DIQMTQSPSSLSASVGDRVTITCRASQGIRNDLGWYQQKPGKDPKRLIFAATNLHGGVPSRFSGGVSGTEFTLTISSLQPEDFATYYCLQHNSYPLTFGGGTKVEIK
notes: as for B1
B10: Table 1 Line # 6 antibody (BM_Plasma_cell) (antibody, human IgG4, V domains shown)
VH: EVQLVESGGDLVQPGRSLRLSCAASGFTFDDYAMHWVRQAPGKGLEWVSGISWNGNSLGYVDSVKGRFTVSRDNAKNSLYLQMNSLRAEDTALYYCTKDTGSYHSYYGLDVWGQGTTVTVSS
VL: B9 VL with D43A, F49Y, T52S, N53S, H55P, G56S, G65S, V66G, H91L, S93T
notes: as for B1
B11: Table 1 Line # 3 antibody (BM_Plasma_cell) (antibody, human IgG4, V domains shown)
VH: EVQLVESGGGLVQPGRSLRLSCAASGFTFDDYAMHWVRQVTGKGLEWVSGINWNSGNIGYADSVRGRFTISRDNAKNSLYLQMNSLRAEDTALYYCAKDSGSSWYGYFDLWGRGTLVTVSS
VL: DIQMTQSPSTLSASVGDRVTITCRASQSISRWLAWYQQKPGKAPKFLIYKASSLESGVPSRFSGSGSGTEFTLTISSLQPDDFATYYCQQYNSDSRTFGQGTKVEIK
notes: as for B1

By Kd is commonly meant the constant that tells how readily two partners part at equilibrium.

Changes are numbered by the printed parent chain.

One assay deals with T1, human IL-4Rα (hIL-4Rα) monomeric protein (human, UniProt P24394 26-232, limits assumed).
T1 construct: also called hIL-4Rα antigen; barcoded hIL-4Rα
As to the kind of experiment: barcoded-antigen count on source cell (scRNA-seq).
Consider B1, for which the REGN560.L15_ab_raw worked out at 10800 counts.

For the molecule B2, the REGN560.L15_ab_raw amounted to 9450 counts.

In the case of B3, the REGN560.L15_ab_raw worked out at 9190 counts.

In the case of B4, the REGN560.L15_ab_raw came to 17400 counts.

The molecule B5 registered an REGN560.L15_ab_raw of 3180 counts.

For the molecule B6, the REGN560.L15_ab_raw was found to be 10600 counts.

In turn, B7 displayed an REGN560.L15_ab_raw of 10400 counts.

In the case of B8, the REGN560.L15_ab_raw came out at 4410 counts.

The molecule B9 registered an REGN560.L15_ab_raw of 7910 counts.

B10: the REGN560.L15_ab_raw was 4140 counts.

Regarding B11, the REGN560.L15_ab_raw came to 6320 counts.

The target of the next assay is T1, human IL-4Rα (hIL-4Rα) monomeric protein. As to the kind of experiment: Biacore (SPR).
B1 showed a dissociation constant (Kd) of 207 nM.

For the molecule B2, binding was put at a Kd of 146 nM.

Take B3: the Kd worked out at 54.8 nM.

Regarding B4, the affinity, expressed as Kd, was 177 nM.

For the molecule B5, binding was put at a Kd of 34.5 nM.

In the case of B6, the affinity, expressed as Kd, was 97.6 nM.

B7: binding was put at a Kd of 112 nM.

B8 registered an equilibrium dissociation constant (Kd) of 23.8 nM.

For the molecule B9, the Kd is 58.1 nM.

In the case of B10, the affinity, expressed as Kd, was 136 nM.

B11 registered a Kd of 537 nM.

A further assay has the same target. Description: Biacore (SPR); negative log10 of Kd. For orientation: Surface plasmon resonance follows binding to a sensor surface in real time, without labels.
For B1, the negLog10Kd turned out to be 6.68.

B2 yielded a negLog10Kd of 6.84.

Turning to B3, the negLog10Kd was found to be 7.26.

As to B4, the negLog10Kd amounted to 6.75.

In the case of B5, the negLog10Kd was determined as 7.46.

Molecule B6 had a negLog10Kd of 7.01.

Molecule B7 showed a negLog10Kd of 6.95.

With B8, the negLog10Kd is 7.62.

As for B9, the negLog10Kd was 7.24.

Turning to B10, the negLog10Kd amounted to 6.87.

The molecule B11 returned a negLog10Kd of 6.27.

The values are drawn from US20230349919A1 (Regeneron, published 2023).
